B1: CD3ζWT-GFP (wild-type murine CD3ζ-GFP fusion protein), transgenic mouse thymocytes (natural protein, UniProt P24161-1 22-164, looked up)
chain: QSFGLLDPKLCYLLDGILFIYGVIITALYLRAKFSRSAETAANLQDPNQLYNELNLGRREEYDVLEKKRARDPEMGGKQQRRRNPQEGVYNALQKDKMAEAYSEIGTKGERRRGKGHDGLYQGLSTATKDTYDALHMQTLAPR

Key:
[1] = molecular target: CD3ζL19A-GFP (L19A murine CD3ζ-GFP fusion protein), transgenic mouse thymocytes (mouse); assay: immunoblot of whole lysates
[2] = molecular target: the molecule itself; assay: immunoblot of whole lysates

Molecule | stoichiometry N [1] | stoichiometry N [2]
CD3ζL19A-GFP (L19A murine CD3ζ-GFP fusion protein), transgenic mouse thymocytes (natural protein) | 2 | –
B1 | – | 2

From publication PMC9295770 (Proceedings of the National Academy of Sciences of the …, 2022)
